The results in this text go back to US20230374132A1.

The target in experiment [1] is human CD3E&G complex (Sino Biological Inc., CT041-H0305H) (human) (UniProt P07766). In words: SPR, antigen on chip.
Experiment [2] has as its target cynomolgus monkey CD3 E&D complex protein (Sino Biological Inc., CT032-00323H) (cynomolgus monkey) (UniProt Q95LI5). In words: SPR, antigen on chip. On the technique in general: SPR reads the build-up and loss of mass on a sensor chip optically.

Sequence of cynomolgus monkey CD3 E&D complex protein (Sino Biological Inc., CT032-00323H) (cynomolgus monkey) (Q95LI5 22-117, chain 1 of 2): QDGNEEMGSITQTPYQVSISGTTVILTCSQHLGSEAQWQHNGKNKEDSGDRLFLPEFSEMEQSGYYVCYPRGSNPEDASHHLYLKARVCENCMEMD
Sequence of cynomolgus monkey CD3 E&D complex protein (Sino Biological Inc., CT032-00323H) (cynomolgus monkey) (Q95LI8 22-105, chain 2 of 2, further chain): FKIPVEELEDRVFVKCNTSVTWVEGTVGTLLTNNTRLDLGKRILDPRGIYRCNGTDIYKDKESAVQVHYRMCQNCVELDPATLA
Sequence of human CD3E&G complex (Sino Biological Inc., CT041-H0305H) (human) (P07766 23-126, chain 1 of 2): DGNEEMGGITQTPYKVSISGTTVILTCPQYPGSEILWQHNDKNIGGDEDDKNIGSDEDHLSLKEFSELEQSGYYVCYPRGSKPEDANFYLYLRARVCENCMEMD
Sequence of human CD3E&G complex (Sino Biological Inc., CT041-H0305H) (human) (P09693 23-116, chain 2 of 2, further chain): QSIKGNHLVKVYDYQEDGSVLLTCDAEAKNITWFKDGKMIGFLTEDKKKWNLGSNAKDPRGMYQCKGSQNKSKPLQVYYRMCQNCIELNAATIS

B1: SGN70-sp34.24HL (bispecific antibody, part only; not given: anti-CD70 Fab arm and Fc, not shown: another chain or arm of the molecule; a dimerising Fc or GST; large carriers; small tags and cut ends)
scFv: EVQLVESGGGLVQPGGSLKLSCAASGFTFNTYAMNWVRQASGKGLEWVGRIRSKYNNYATYYADSVKDRFTISRDDSKSTLYLQMNSLKTEDTAVYYCARHGNFGQSYVSWFAYWGQGTTVTVSSGGGGSGGGGSGGGGSGGGGSQAVVTQEPSLTVSPGGTVTLTCRSSTGAVTTSNYANWVQQKPGQAPRGLIGGTNKRAPGVPARFSGSLLGDKAALTLLGAQPEDEAEYYCALWYSNLWVFGQGTKLTVL
B1: in experiment [1], the Kd (commonly the concentration at which binding is half-saturated) came out at 110 nM; the koff (in general, the first-order rate constant of dissociation) is 0.029 s⁻¹; the kon (usually the second-order rate constant of association) worked out at 265000 M⁻¹ s⁻¹. Moreover, in experiment [2], the Kd stood at 179 nM, the koff is 0.0302 s⁻¹ and the kon was determined as 169000 M⁻¹ s⁻¹.

B2: SGN70-sp34.87HL (bispecific antibody, part only; not given: anti-CD70 Fab arm and Fc, not shown: another chain or arm of the molecule; a dimerising Fc or GST)
scFv: EVQLVESGGGLVQPGGSLKLSCAASGFTFNTYAMNWVRQASGKGLEWVGRIRSKYNNYATYYADSVKDRFTISRDDSKSTLYLQMNSLKTEDTAVYYCARHYNFGQSYVSWFAYWGQGTTVTVSSGGGGSGGGGSGGGGSGGGGSQAVVTQEPSLTVSPGGTVTLTCRSSTGAVTTSNYANWVQQKPGQAPRGLIGGTNKRAPGVPARFSGSLLGDKAALTLLGAQPEDEAEYYCALWYSNLWVFGQGTKLTVL
Turning to B2, in experiment [1], the Kd was found to be 501 nM, the koff is 0.253 s⁻¹ and the kon was 504000 M⁻¹ s⁻¹. In experiment [2], this molecule had a Kd of 633 nM, a koff of 0.195 s⁻¹ and a kon of 308000 M⁻¹ s⁻¹.

B3: SGN70-sp34.97HL (bispecific antibody, part only; not given: anti-CD70 Fab arm and Fc, not shown: another chain or arm of the molecule; a dimerising Fc or GST)
scFv: EVQLVESGGGLVQPGGSLKLSCAASGFTFNTYAMNWVRQASGKGLEWVGRIRSKAGGYATYYADSVKDRFTISRDDSKSTLYLQMNSLKTEDTAVYYCARHGNFGQSYVSWFAYWGQGTTVTVSSGGGGSGGGGSGGGGSGGGGSQAVVTQEPSLTVSPGGTVTLTCRSSTGAVTTSNYANWVQQKPGQAPRGLIGGTNKRAPGVPARFSGSLLGDKAALTLLGAQPEDEAEYYCALWYSNLWVFGQGTKLTVL
In experiment [1], B3 registered an equilibrium dissociation constant (Kd) of 5200 nM, a koff of 0.416 s⁻¹ and a kon of 79900 M⁻¹ s⁻¹. For the same molecule, in experiment [2], the Kd was 5500 nM, the koff was 0.705 s⁻¹ and the kon amounted to 128000 M⁻¹ s⁻¹.

B4: SGN70-sp34.101HL (bispecific antibody, part only; not given: anti-CD70 Fab arm and Fc, not shown: another chain or arm of the molecule; a dimerising Fc or GST; large carriers)
scFv: EVQLVESGGGLVQPGGSLKLSCAASGFTFNTYAMNWVRQASGKGLEWVGRIRSKYNNYATYYADSVKDRFTISRDDSKSTLYLQMNSLKTEDTAVYYCARHGNFGQSAASWFAYWGQGTTVTVSSGGGGSGGGGSGGGGSGGGGSQAVVTQEPSLTVSPGGTVTLTCRSSTGAVTTSNYANWVQQKPGQAPRGLIGGTNKRAPGVPARFSGSLLGDKAALTLLGAQPEDEAEYYCALWYSNLWVFGQGTKLTVL
In experiment [1], B4 came in with a Kd of 480 nM, a koff of 0.167 s⁻¹ and a kon of 347000 M⁻¹ s⁻¹. In experiment [2], this molecule registered a Kd of 658 nM, a koff of 0.177 s⁻¹ and a kon of 269000 M⁻¹ s⁻¹.

B5: SGN70-sp34.24LH (bispecific antibody, part only; not given: anti-CD70 Fab arm and Fc, not shown: another chain or arm of the molecule; a dimerising Fc or GST; large carriers; small tags and cut ends)
scFv: QAVVTQEPSLTVSPGGTVTLTCRSSTGAVTTSNYANWVQQKPGQAPRGLIGGTNKRAPGVPARFSGSLLGDKAALTLLGAQPEDEAEYYCALWYSNLWVFGQGTKLTVLGGGGSGGGGSGGGGSGGGGSEVQLVESGGGLVQPGGSLKLSCAASGFTFNTYAMNWVRQASGKGLEWVGRIRSKYNNYATYYADSVKDRFTISRDDSKSTLYLQMNSLKTEDTAVYYCARHGNFGQSYVSWFAYWGQGTTVTVSS
Regarding B5, in experiment [1], the Kd turned out to be 98 nM, the koff worked out at 0.0146 s⁻¹ and the kon was 150000 M⁻¹ s⁻¹. In experiment [2], the Kd was found to be 141 nM, the off-rate constant (koff) was 0.0158 s⁻¹ and the kon worked out at 113000 M⁻¹ s⁻¹.

B6: SGN70-sp34.97LH (bispecific antibody, part only; not given: anti-CD70 Fab arm and Fc, not shown: another chain or arm of the molecule; a dimerising Fc or GST)
scFv: QAVVTQEPSLTVSPGGTVTLTCRSSTGAVTTSNYANWVQQKPGQAPRGLIGGTNKRAPGVPARFSGSLLGDKAALTLLGAQPEDEAEYYCALWYSNLWVFGQGTKLTVLGGGGSGGGGSGGGGSGGGGSEVQLVESGGGLVQPGGSLKLSCAASGFTFNTYAMNWVRQASGKGLEWVGRIRSKAGGYATYYADSVKDRFTISRDDSKSTLYLQMNSLKTEDTAVYYCARHGNFGQSYVSWFAYWGQGTTVTVSS
Regarding B6, in experiment [1], the Kd was 3110 nM, the koff was 0.253 s⁻¹ and the kon is 81300 M⁻¹ s⁻¹. In addition, in experiment [2], the Kd came out at 5220 nM, the koff came out at 0.333 s⁻¹ and the kon worked out at 63800 M⁻¹ s⁻¹.

B7: SGN70-sp34.87LH (bispecific antibody, part only; not given: anti-CD70 Fab arm and Fc, not shown: another chain or arm of the molecule; a dimerising Fc or GST)
scFv: QAVVTQEPSLTVSPGGTVTLTCRSSTGAVTTSNYANWVQQKPGQAPRGLIGGTNKRAPGVPARFSGSLLGDKAALTLLGAQPEDEAEYYCALWYSNLWVFGQGTKLTVLGGGGSGGGGSGGGGSGGGGSEVQLVESGGGLVQPGGSLKLSCAASGFTFNTYAMNWVRQASGKGLEWVGRIRSKYNNYATYYADSVKDRFTISRDDSKSTLYLQMNSLKTEDTAVYYCARHYNFGQSYVSWFAYWGQGTTVTVSS
In experiment [1], B7 showed a Kd of 335 nM, a koff of 0.107 s⁻¹ and a kon of 321000 M⁻¹ s⁻¹. For the same molecule, in experiment [2], the Kd was found to be 544 nM, the koff turned out to be 0.0466 s⁻¹ and the kon was 85700 M⁻¹ s⁻¹.

B8: SGN70-sp34.99LH (bispecific antibody, part only; not given: anti-CD70 Fab arm and Fc, not shown: another chain or arm of the molecule; a dimerising Fc or GST)
scFv: QAVVTQEPSLTVSPGGTVTLTCRSSTGAVTTSNYANWVQQKPGQAPRGLIGGTNKRAPGVPARFSGSLLGDKAALTLLGAQPEDEAEYYCALWYSNLWVFGQGTKLTVLGGGGSGGGGSGGGGSGGGGSEVQLVESGGGLVQPGGSLKLSCAASGFTFNTYAMNWVRQASGKGLEWVGRIRSKYNNYATYYADSVKDRFTISRDDSKSTLYLQMNSLKTEDTAVYYCARHGNAYQSYVSWFAYWGQGTTVTVSS
Take B8: in experiment [1], the Kd worked out at 8060 nM, the koff amounted to 0.993 s⁻¹ and the kon stood at 123000 M⁻¹ s⁻¹. In experiment [2], this molecule returned a Kd of 14600 nM, an off-rate constant (koff) of 0.217 s⁻¹ and a kon of 14900 M⁻¹ s⁻¹.

B9: SGN70-sp34.80LH (bispecific antibody, part only; not given: anti-CD70 Fab arm and Fc, not shown: another chain or arm of the molecule; a dimerising Fc or GST)
scFv: QAVVTQEPSLTVSPGGTVTLTCRSSTGAVTTSNYANWVQQKPGQAPRGLIGGTNKRAPGVPARFSGSLLGDKAALTLLGAQPEDEAEYYCALWYSNLWVFGQGTKLTVLGGGGSGGGGSGGGGSGGGGSEVQLVESGGGLVQPGGSLKLSCAASGFTFNTAAMNWVRQASGKGLEWVGRIRSKYNNYATYYADSVKDRFTISRDDSKSTLYLQMNSLKTEDTAVYYCARHGNFGQSYVSWFAYWGQGTTVTVSS
In experiment [1], B9 gave a Kd of 4060 nM, a koff of 0.201 s⁻¹ and a kon of 49700 M⁻¹ s⁻¹. In experiment [2], this molecule registered a Kd of 6490 nM, a koff of 0.749 s⁻¹ and a kon of 115000 M⁻¹ s⁻¹.

B10: SGN70-sp34.101LH (bispecific antibody, part only; not given: anti-CD70 Fab arm and Fc, not shown: another chain or arm of the molecule; a dimerising Fc or GST; large carriers)
scFv: QAVVTQEPSLTVSPGGTVTLTCRSSTGAVTTSNYANWVQQKPGQAPRGLIGGTNKRAPGVPARFSGSLLGDKAALTLLGAQPEDEAEYYCALWYSNLWVFGQGTKLTVLGGGGSGGGGSGGGGSGGGGSEVQLVESGGGLVQPGGSLKLSCAASGFTFNTYAMNWVRQASGKGLEWVGRIRSKYNNYATYYADSVKDRFTISRDDSKSTLYLQMNSLKTEDTAVYYCARHGNFGQSAASWFAYWGQGTTVTVSS
In experiment [1], B10 returned a Kd of 409 nM, a koff of 0.119 s⁻¹ and a kon of 290000 M⁻¹ s⁻¹. In experiment [2], this molecule displayed a Kd of 614 nM, a koff of 0.144 s⁻¹ and a kon of 235000 M⁻¹ s⁻¹.
